Assay results as given in patent US20230071371A1 (Scripps Research, published 2023).
Like-named read-outs stand apart in the source and are kept apart here. Bridges are numbered along the chain shown (N, C = ends). Where no end group is shown, it is not given here. [ ]: non-standard residue; d: D form. hArg = N=C(N)NCCCC[C@H](N)C(=O)O; staple K5 = not defined here; Nle = CCCC[C@H](N)C(=O)O; L4A = not defined here; L5A = not defined here; K0 = not defined here; K4 = not defined here; K5 = not defined here; L3 = not defined here; L4 = not defined here; L9 = not defined here; Aib = CC(C)(N)C(=O)O

What was measured:
Assay in all cases: cell-based or functional assay
[1] = biological target: T1, human GLP-1R (human, UniProt P43220 24-463)
[2] = biological target: T2, human GIPR (human, UniProt P48546 22-466)
T2 sequence (looked up): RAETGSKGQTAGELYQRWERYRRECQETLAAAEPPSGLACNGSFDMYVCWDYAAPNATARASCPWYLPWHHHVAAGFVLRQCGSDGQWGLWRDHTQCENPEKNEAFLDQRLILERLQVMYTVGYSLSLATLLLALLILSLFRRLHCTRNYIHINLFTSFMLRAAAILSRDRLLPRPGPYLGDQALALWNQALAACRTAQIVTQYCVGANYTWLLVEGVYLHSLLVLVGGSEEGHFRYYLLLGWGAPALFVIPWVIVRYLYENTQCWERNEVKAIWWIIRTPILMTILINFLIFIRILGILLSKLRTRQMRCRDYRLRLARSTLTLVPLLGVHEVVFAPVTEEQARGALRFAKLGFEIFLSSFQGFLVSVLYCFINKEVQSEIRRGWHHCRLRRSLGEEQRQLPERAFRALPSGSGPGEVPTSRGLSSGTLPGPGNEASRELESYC

[3] = biological target: T1, human GLP-1R; remark: listed apart in the source
[4] = biological target: human GCGR (human, UniProt P47871 26-477)
Chain of human GCGR (P47871 26-477): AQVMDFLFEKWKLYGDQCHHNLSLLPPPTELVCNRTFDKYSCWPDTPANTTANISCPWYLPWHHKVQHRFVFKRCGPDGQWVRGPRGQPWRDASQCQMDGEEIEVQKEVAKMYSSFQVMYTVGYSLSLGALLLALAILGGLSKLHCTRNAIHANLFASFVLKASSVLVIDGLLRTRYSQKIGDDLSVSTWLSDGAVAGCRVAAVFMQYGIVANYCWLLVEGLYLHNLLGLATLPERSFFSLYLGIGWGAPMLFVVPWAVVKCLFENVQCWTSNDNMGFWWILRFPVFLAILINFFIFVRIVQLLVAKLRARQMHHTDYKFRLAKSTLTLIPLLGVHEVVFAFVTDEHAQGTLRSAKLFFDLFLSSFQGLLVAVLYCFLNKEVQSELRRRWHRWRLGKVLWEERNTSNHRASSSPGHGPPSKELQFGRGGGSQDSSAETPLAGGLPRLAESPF

[5] = biological target: human GLP-1R (human) (UniProt P43220)
Chain of human GLP-1R (human) (P43220 24-463): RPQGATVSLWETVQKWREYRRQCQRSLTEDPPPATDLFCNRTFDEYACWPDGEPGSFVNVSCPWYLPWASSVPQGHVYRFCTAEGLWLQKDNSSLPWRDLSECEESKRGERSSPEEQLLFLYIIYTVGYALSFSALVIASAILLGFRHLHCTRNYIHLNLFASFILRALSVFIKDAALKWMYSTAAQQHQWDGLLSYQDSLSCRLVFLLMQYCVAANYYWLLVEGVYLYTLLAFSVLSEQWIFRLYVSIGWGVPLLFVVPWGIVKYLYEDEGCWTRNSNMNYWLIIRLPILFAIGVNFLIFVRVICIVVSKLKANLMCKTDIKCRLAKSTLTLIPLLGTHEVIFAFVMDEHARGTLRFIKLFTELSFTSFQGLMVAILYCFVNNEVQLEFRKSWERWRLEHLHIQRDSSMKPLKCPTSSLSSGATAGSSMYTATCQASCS

[6] = biological target: human GCGR (human) (UniProt P47871)
Chain of human GCGR (human) (P47871 26-477): as the sequence (P47871 26-477) above

[7] = biological target: human NPFF2R (human, UniProt Q9Y5X5 1-522)
Chain of human NPFF2R (Q9Y5X5 whole entry): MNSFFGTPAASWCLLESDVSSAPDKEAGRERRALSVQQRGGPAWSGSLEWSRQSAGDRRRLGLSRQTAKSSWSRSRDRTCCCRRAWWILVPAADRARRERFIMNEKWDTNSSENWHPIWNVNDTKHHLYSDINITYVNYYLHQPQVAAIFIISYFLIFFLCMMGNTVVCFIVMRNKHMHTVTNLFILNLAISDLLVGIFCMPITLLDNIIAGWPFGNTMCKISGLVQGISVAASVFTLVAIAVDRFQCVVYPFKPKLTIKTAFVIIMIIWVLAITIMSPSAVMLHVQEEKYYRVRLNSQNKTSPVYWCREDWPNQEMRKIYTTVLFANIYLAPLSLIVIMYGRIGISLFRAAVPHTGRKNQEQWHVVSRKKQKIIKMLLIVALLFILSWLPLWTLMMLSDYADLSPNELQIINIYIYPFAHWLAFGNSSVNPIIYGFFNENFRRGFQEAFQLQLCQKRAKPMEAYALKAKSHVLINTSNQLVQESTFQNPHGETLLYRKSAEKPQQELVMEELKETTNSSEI

[8] = biological target: T3, GPR10 (UniProt P49683 1-370, limits assumed)
T3 sequence (looked up): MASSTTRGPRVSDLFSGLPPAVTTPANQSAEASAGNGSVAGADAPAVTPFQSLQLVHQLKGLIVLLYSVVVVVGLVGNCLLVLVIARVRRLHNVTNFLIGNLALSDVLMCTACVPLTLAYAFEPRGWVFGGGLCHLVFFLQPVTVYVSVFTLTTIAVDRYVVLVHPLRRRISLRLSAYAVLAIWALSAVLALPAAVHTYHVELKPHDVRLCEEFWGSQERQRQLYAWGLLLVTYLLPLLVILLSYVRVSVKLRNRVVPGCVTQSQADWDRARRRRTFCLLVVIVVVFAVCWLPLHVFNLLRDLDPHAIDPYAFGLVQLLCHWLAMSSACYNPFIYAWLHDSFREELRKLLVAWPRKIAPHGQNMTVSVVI

[9] = biological target: T3, GPR10; remark: listed apart in the source
[10] = biological target: T1, human GLP-1R; remark: listed apart in the source

B1: Conjugate 168 (peptide)
peptide: YXEGTFHSDYDIYKDKQAALKFVAWLLAGGPSSGAPPPS
modifications: staple K5 on Lys 14, 21; Aib 2; Nle 20
EC50 Creluc [1]: > 1000 nM | EC50 Creluc [2]: 303 nM

B2: Conjugate 170 (peptide)
peptide: YXEGTFTSDYSIYKDKQAALKFVAWLLAGGPSSGAPPPS
modifications: staple K5 on Lys 14, 21; Aib 2; D-Ser 8, 11; Nle 20
EC50 Creluc [1]: 3.74 nM | EC50 Creluc [2]: 15.7 nM

B3: Conjugate 167 (peptide)
peptide: YXEGTFHSDYDIYKDKQAALKFVAWLLAGGPSSGAPPPS
modifications: staple K4 on Lys 14, 21; Aib 2; Nle 20
EC50 Creluc [1]: 18.8 nM | EC50 Creluc [2]: 20.4 nM

B4: Conjugate 137 (peptide)
peptide: H[dS]QGTFTSDYSKYLDECAAKEFICWLLRA
modifications: linker 17-24 via L5A; reading uncertain
EC50 cAMP 0% FBS [3]: 2.02 nM | EC50 cAMP 0% FBS [4]: 0.444 nM

B5: Conjugate 121 (peptide)
peptide: H[dS]QGTFTSDYSKYLDEKAAKEFIKWLLNGGPSSGAPPPS
modifications: linker 17-24 via K5; ends not checked
EC50 cAMP 0% FBS [3]: 1.36 nM | EC50 cAMP 0% FBS [4]: 2.54 nM

B6: Conjugate 138 (peptide)
peptide: H[dS]QGTFTSDYSKYLDECAAKEFICWLLNGGPSSGAPPPS
modifications: linker 17-24 via L5A; ends not checked
EC50 cAMP 0% FBS [5]: 0.908 nM | EC50 cAMP 0% FBS [6]: 1.42 nM

B7: Conjugate 127 (peptide)
peptide: HXQGTFTSDYSKYLDSKKAQEFVKWLLNGPSSGAPPPS
modifications: staple K4 on Lys 17, 24; Aib 2
EC50 cAMP 0% FBS [3]: 0.148 nM | EC50 cAMP 0% FBS [4]: 0.009 nM

B8: Conjugate 124 (peptide)
peptide: H[dS]QGTFTSDYSKYLDEKAAKEFIKWLLNGGPSSGAPPPS
modifications: linker 17-24 via K0; ends not checked
EC50 cAMP 0% FBS [3]: 0.049 nM | EC50 cAMP 0% FBS [4]: 0.319 nM

B9: Conjugate 136 (peptide)
peptide: H[dS]QGTFTSDYSKYLDECAAKEFICWLLRA
modifications: linker 17-24 via L4A; reading uncertain
EC50 cAMP 0% FBS [3]: 2.87 nM | EC50 cAMP 0% FBS [4]: 0.559 nM

B10: Conjugate 255 (peptide)
peptide: SRAHQCS[Nle]ETRTCDINPAWYTG[hArg]GIRPVGRF-NH2
modifications: linker 6-13 via L3; reading uncertain
NPFF2R EC50 0% FBS [7]: 150 nM | NPFF2R EC50 10% FBS [7]: 220 nM | GPR10 EC50 0% FBS [8]: 8 nM | GPR10 EC50 10% FBS [8]: 9.1 nM | GPR10 EC50 [9]: 9.1 nM

B11: Conjugate 259 (peptide)
peptide: SRAHQCS[Nle]ETRTCDINPAWYTG[hArg]GIRPVGRF-NH2
modifications: linker 6-13 via L4; reading uncertain
NPFF2R EC50 0% FBS [7]: 470 nM | NPFF2R EC50 10% FBS [7]: > 10000 nM | GPR10 EC50 0% FBS [8]: 12 nM | GPR10 EC50 10% FBS [8]: 26 nM | GPR10 EC50 [9]: 26 nM

B12: Conjugate 166 (peptide)
peptide: Y[Aib]EGTFHSDYDIYKDKQAA[Aib]KFVQWLLAGGPSSGAPPPS
modifications: linker 14-21 via staple K5; reading uncertain
EC50 Creluc [1]: 83.9 nM | EC50 Creluc [2]: 12.6 nM

B13: Conjugate 122 (peptide)
peptide: H[dS]QGTFTSDYSKYLDEKAAKEFIKWLLNGGPSSGAPPPS
modifications: linker 17-24 via K4; ends not checked
EC50 cAMP 0% FBS [3]: 0.0037 nM | EC50 cAMP 0% FBS [4]: 0.07 nM

B14: Conjugate 181 (peptide)
peptide: HXEGTFTSDVSSYLEGKAAKEFIKWLVKGRG
modifications: staple K5 on Lys 17, 24; Aib 2; C-terminal -OH
EC50 cAMP 0% FBS [10]: 0.026 nM

B15: Conjugate 126 (peptide)
peptide: HXQGTFTSDYSKYLDSKKAKEFVKWLLNXGPSSGAPPPS
modifications: not fully specified; staple K4 on Lys 17, 24; Aib 2, 29
EC50 cAMP 0% FBS [4]: 0.092 nM

B16: Conjugate 268 (peptide)
peptide: SRAHQCS[Nle]ETRTCDINPAWYTG[hArg]GIRPVGRF-NH2
modifications: linker 6-13 via L9; reading uncertain
NPFF2R EC50 0% FBS [7]: 9000 nM | NPFF2R EC50 10% FBS [7]: > 10000 nM | GPR10 EC50 0% FBS [8]: 8.2 nM | GPR10 EC50 10% FBS [8]: 120 nM
